The assay has as its target T1, Recombinant human CD28 (R&D Systems) (human, UniProt P10747 19-152).
T1 construct: Coated on microtiter plates at 1 ug/mL; also called recombinant CD28
The assay is described as follows: ELISA on immobilized recombinant human CD28, purified Mono28Fc.

Several values for one entry are separate records, joined by “and”; a condition that tells them apart may be missing. Equal values may be shown once.

B1: Mono28Fc, recombinant monovalent antibody derived from the anti-CD28 antibody CD28.3 (heterodimer VH-CH2CH3 + VL-CH2CH3, human IgG1 CH2-CH3) (antibody, V domains shown)
VH: VKLQQSGAELVKPGASVRLSCKASGYTFTEYIIHWIKLRSGQGLEWIGWFYPGSNDIQYNAKFKGKATLTADKSSSTVYMELTGLTSEDSAVYFCARRDDFSGYDALPYWGQGTMVTVSS
VL: DIQMTQSPASLSVSVGETVTITCRTNENIYSNLAWYQQKQGKSPQLLIYAATHLVEGVPSRFSGSGSGTQYSLKITSLQSEDFGNYYCQHFWGTPCTFGGGTKLEIKR
notes: Expressed in COS cells from pSecTag2B with the mouse Ig kappa leader (cleaved on secretion); also called co-transfection with pSec-VH-Fc(CH2-CH3) and pSec-VL-Fc(CH2-CH3)
On to B1, for which the EC50 is 0.1 µg/mL and 1.16 nM.

The values above are taken from US20170166643A1 (OSE IMMUNOTHERAPEUTICS, published 2017).
